From patent publication US20210355194A1 (TWIST BIOSCIENCE, published 2021)

B1: variant 6-82 (Fc fusion)
VHH: EVQLVESGGGLVQPGGSLRLSCAASGSSLDAYGMGWFRQAPGKEREFVAAISWGGGSIYYADSVKGRFTISADNSKNTAYLQMNSLKPEDTAVYYCARLSQGMVALDYWGQGTLVTVSS
B2: variant 6-6 (Fc fusion)
VHH: EVQLVESGGGLVQPGGSLRLSCAASGTTLDYYAMGWFRQAPGKERELVAAISWSGGSTAYADSVKGRFTISADNSKNTAYLQMNSLKPEDTAVYYCAREDYYDSSGYSWGQGTLVTVSS
B3: variant 3-10 (antibody, V domains shown)
VH: EVQLLESGGGLVQPGGSLRLSCAASGFTFRSHAMSWVRQAPGKGLEWVSSISGGGASTYYADSVKGRFTISRDNSKNTLYLQMNSLRAEDTAVYYCARVKYLTTSSGWPRPYFDNWGQGTLVTVSS
VL: DIQMTQSPSSLSASVGDRVTITCRASQSIRKYLNWYQQKPGKAPKLLIYASSTLQRGVPSRFSGSGSGTDFTLTISSLQPEDFATYYCQQSLSTPFTFGGGTKVEIK
B4: variant 6-22 (Fc fusion)
VHH: EVQLVESGGGLVQPGGSLRLSCAASGRTFSEVVMGWFRQAPGKEREFVATIHSSGSTSYADSVKGRFTISADNSKNTAYLQMNSLKPEDTAVYYCVRVTSDYSMDSWGQGTLVTVSS
B5: 9-6 (VHH)
VHH: EVQLVESGGGLVQPGGSLRLSCAASGRTFSRFAMGWFRQAPGKEREFVAAIRWSGGRTVYADSVKGRFTISADNSKNTAYLQMNSLKPEDTAVYYCAIEPGTIRNWRNRVPFARGNFGWGQGTLVTVSS
B6: 10-6 (VHH)
VHH: EVQLVESGGGLVQPGGSLRLSCAASGTTLTFRIMGWFRQAPGKEREFVPAISSTGLASYTDSVKGRFTISADNSKNTAYLQMNSLKPEDTAVYYCSKDRAPNCFACCPNGFDVWGQGTLVTVSS
B7: variant 5-32 (Fc fusion)
VHH: EVQLVESGGGLVQPGGSLRLSCAASGFTPDNYAMGWFRQAPGKEREFVAALGWSGVTTYHYYADSVKGRFTISADNSKNTAYLQMNSLKPEDTAVYYCASDESDAANWGQGTLVTVSS
B8: 10-60 (VHH)
VHH: EVQLVESGGGLVQPGGSLRLSCAASGIPASMYLGWFRQAPGKEREFVAAITSGGRTSYADSVKGRFTISADNSKNTAYLQMNSLKPEDTAVYYCAKRKKRGPLWFGGGGWGYWGQGTLVTVSS
B9: variant 6-24 (Fc fusion)
VHH: EVQLVESGGGLVQPGGSLRLSCAASGFTLDYYAMGWFRQAPGKEREFVAAINWSGDNTHYADSVKGRFTISADNSKNTAYLQMNSLKPEDTAVYYCARAPFYCTTTKCQDNYYYMDVWGQGTLVTVSS
B10: variant 6-91 (Fc fusion)
VHH: EVQLVESGGGLVQPGGSLRLSCAASGRTFGNYAMGWFRQAPGKEREFVASISSSGVSKHYADSVKGRFTISADNSKNTAYLQMNSLKPEDTAVYYCVRFGSSWARDLDQWGQGTLVTVSS
B11: variant 6-32 (Fc fusion)
VHH: EVQLVESGGGLVQPGGSLRLSCAASGFTLDYYDMGWFRQAPGKEREFVALISWSGGSTYYADSVKGRFTISADNSKNTAYLQMNSLKPEDTAVYYCATDFYGWGTRERDAFDIWGQGTLVTVSS
B12: 9-2 (VHH)
VHH: EVQLVESGGGLVQPGGSLRLSCAASGSFSIAAMGWFRQAPGKEREFVATINYSGGGTYYADSVKGRFTISADNSKNTAYLQMNSLKPEDTAVYYCAAVNTFDESAYAAFACYDVVWGQGTLVTVSS
B13: 10-56 (VHH)
VHH: EVQLVESGGGLVQPGGSLRLSCAASGHTFRNYGMGWFRQAPGKEREFVAAITSSGSTNYADSVKGRFTISADNSKNTAYLQMNSLKPEDTAVYYCATVPPPRRFLEWLPRRLTYTWGQGTLVTVSS
B14: variant 6-40 (Fc fusion)
VHH: EVQLVESGGGLVQPGGSLRLSCAASGFTFSDYWMGWFRQAPGKERELVARVWWNGGSAYYADSVKGRFTISADNSKNTAYLQMNSLKPEDTAVYYCAREVLRQQVVLDYWGQGTLVTVSS
B15: 10-1 (VHH)
VHH: EVQLVESGGGLVQPGGSLRLSCAASGLSSPPFDDFPMGWFRQAPGKEREFVSSIYSDDGDSMYADSVKGRFTISADNSKNTAYLQMNSLKPEDTAVYYCARQTFDFWSASLGGNFWYFDLWGQGTLVTVSS
B16: variant 6-42 (Fc fusion)
VHH: EVQLVESGGGLVQPGGSLRLSCAASGDTYGSYWMGWFRQAPGKEREFVAVITSGGSTNYADSVKGRFTISADNSKNTAYLQMNSLKPEDTAVYYCTHVQNSYYYAMDVWGQGTLVTVSS
B17: variant 5-8 (Fc fusion)
VHH: EVQLVESGGGLVQPGGSLRLSCAASGRPFSEYTMGWFRQAPGKEREFVSSIHWGGRGTNYADSVKGRFTISADNSKNTAYLQMNSLKPEDTAVYYCAAELHSSDYTSPGAYAWGQGTLVTVSS
B18: variant 5-51 (Fc fusion)
VHH: EVQLVESGGGLVQPGGSLRLSCAASGRPNSINWMGWFRQAPGKERQFVATITPGGNTNYADSVKGRFTISADNSKNTAYLLMNSLKPEDTAVYYCAAAAGTTWYGTLYEYDWGQGTLVTVSS
B19: variant 5-63 (Fc fusion)
VHH: EVQLVESGGGLVQPGGSLRLSCAASGFSLDYYDMGWFRQAPGKEREFVAALGWSGGSTDYADSVKGRFTISADNSKNTAYLQMNSLKPEDTAVYYCAAGNGGRYGIVERWGQGTLVTVSS
B20: variant 2-1 (antibody, V domains shown)
VH: EVQLLESGGGLVQPGGSLRLSCAASGFTFSNYATDWVRQAPGKGLEWVSIISGSGGATYYADSVKGRFTISRDNSKNTLYLQMNSLRAEDTAVYYCAKGGYCSSDTCWWEYWLDPWGQGTLVTVSS
VL: DIQMTQSPSSLSASVGDRVTITCRASQSIHRFLNWYQQKPGKAPKLLIYAASNLHSGVPSRFSGSGSGTDFTLTISSLQPEDFATYYCQQSYGLPPTFGQGTKVEIK
B21: variant 6-13 (Fc fusion)
VHH: EVQLVESGGGLVQPGGSLRLSCAASGLTFNDYAMGWFRQAPGKEREFVAHIPRSTYSPYYADSVKGRFTISADNSKNTAYLQMNSLKPEDTAVYYCAFLVGPQGVDHGAFDVWGQGTLVTVSS
B22: variant 5-38 (Fc fusion)
VHH: EVQLVESGGGLVQPGGSLRLSCAASGRTFSMHAMGWFRQAPGKERELVASISSQGRTNYADSVKGRFTISADNSKNTAYLQMNSLKPEDTAVYYCAAEVRNGSDYLPIDWGQGTLVTVSS
B23: 10-2 (VHH)
VHH: EVQLVESGGGLVQPGGSLRLSCAASGGTFSSYSMGWFRQAPGKEREFVSAISWIIGSGGTTNYADSVKGRFTISADNSKNTAYLQMNSLKPEDTAVYYCTAGAGDSWGQGTLVTVSS
B24: variant 2-9 (antibody, V domains shown)
VH: EVQLLESGGGLVQPGGSLRLSCAASGFTFPRYAMSWVRQAPGKGLEWVSTISGSGSTTYYADSVKGRFTISRDNSKNTLYLQMNSLRAEDTAVYYCARLIDAFDIWGQGTLVTVSS
VL: DIQMTQSPSSLSASVGDRVTITCRASQRIGTYLNWYQQKPGKAPKLLIYAASNLEGGVPSRFSGSGSGTDFTLTISSLQPEDFATYYCQQNYSTTWTFGQGTKVEIK
B25: 10-44 (VHH)
VHH: EVQLVESGGGLVQPGGSLRLSCAASGRTFRRYTMGWFRQAPGKEREFVAVISWSGGSTKYADSVKGRFTISADNSKNTAYLQMNSLKPEDTAVYYCARKGRWSGMNVWGQGTLVTVSS
B26: 10-51 (VHH)
VHH: EVQLVESGGGLVQPGGSLRLSCAASGRFFSTRVMGWFRQAPGKEREFVARIWPGGSTYYADSVKGRFTISADNSKNTAYLQMNSLKPEDTAVYYCARDRGIFGVSRWGQGTLVTVSS

How the values were obtained:
[1] = biological target: SARS-CoV-2 spike on live SARS-CoV-2 virus (SARS-CoV-2, UniProt P0DTC2 14-1273); assay: cell-based or functional assay
[2] = biological target: T1, Acro SARS-CoV-2 (COVID-19) S1 protein (SARS-CoV-2, UniProt P0DTC2 16-685); assay: SPR
T1 construct: also called SARS-CoV-2 S1

[3] = biological target: T2, COVID S1 RBM Fc fusion (Antigen 2) (SARS-CoV-2, UniProt P0DTC2 437-508); assay: phage ELISA
T2 construct: domain: S1 RBM

[4] = biological target: T3, COVID S1 RBD Fc fusion (Antigen 1) (SARS-CoV-2, UniProt P0DTC2 319-541); assay: phage ELISA
T3 construct: domain: S1 RBD

[5] = biological target: SARS-CoV-2 membrane protein on expressing cells (SARS-CoV-2, UniProt P0DTC5 1-222)
[6] = biological target: SARS-COV2-S1 RBD (mouse IgG2Fc tag) (SARS-CoV-2, UniProt P0DTC2 319-537)

Row | Binder | EC80 [1] | Kd [2] | MFI Ratio [5] | other results
1 | B1 | 108 µg/mL | 7.1 nM | – | –
2 | B2 | 24.4 µg/mL | 6.4 nM | – | –
3 | B3 | – | – | – | specificity ELISA, fold over background [3]: 1.1 fold over background; specificity ELISA, percent binding relative to Acro S1 [3]: 93.3%; specificity ELISA, fold over background [4]: 1.2 fold over background; specificity ELISA, percent binding relative to Acro S1 [4]: 97.2%
4 | B4 | 103 µg/mL | 25.6 nM | – | –
5 | B5 | – | – | 1.47 | –
6 | B6 | – | – | 1.08 | –
7 | B7 | 180 µg/mL | 22.4 nM | – | –
8 | B8 | – | – | 1.14 | –
9 | B9 | 31.4 µg/mL | 29.9 nM | – | –
10 | B10 | 240 µg/mL | – | – | –
11 | B11 | 60.6 µg/mL | 27.2 nM | – | –
12 | B12 | – | – | 1.3 | –
13 | B13 | – | – | 1.39 | –
14 | B14 | – | – | – | IC50 [6]: 1.36 nM
15 | B15 | – | – | 1.08 | –
16 | B16 | 0.734 µg/mL | 10.1 nM | – | –
17 | B17 | 15.8 µg/mL | – | – | –
18 | B18 | 388 µg/mL | 25.5 nM | – | –
19 | B19 | 14.2 µg/mL | 10.5 nM | – | –
20 | B20 | – | – | – | specificity ELISA, fold over background [3]: 1.5 fold over background; specificity ELISA, percent binding relative to Acro S1 [3]: 3.9%; specificity ELISA, fold over background [4]: 36.8 fold over background; specificity ELISA, percent binding relative to Acro S1 [4]: 93.7%
21 | B21 | 25.7 µg/mL | 25.3 nM | – | –
22 | B22 | 1.5 µg/mL | – | – | –
23 | B23 | – | – | 1.25 | –
24 | B24 | – | – | – | specificity ELISA, fold over background [3]: 0.8 fold over background; specificity ELISA, percent binding relative to Acro S1 [3]: 3.5%; specificity ELISA, fold over background [4]: 24.3 fold over background; specificity ELISA, percent binding relative to Acro S1 [4]: 101%
25 | B25 | – | – | 1.46 | –
26 | B26 | – | – | 1.47 | –
